Data on one substance can be found in US7833548B2, “Bioactive agent release coating and controlled humidity method” (Surmodics, Inc., priority 2002, dated 2010).

A short description of the data set: Bioactive Agent Release Assay, dextran-TRITC from discs with polymer topcoat coated under controlled humidity. Format: physicochemical. As to conditions: pEVA (33% vinyl acetate)/pBMA topcoat over dextran-TRITC layer, PBS, 37° C.; FIG. 2. On the procedure:
Two solutions were prepared in order to provide a coating composition of the presently claimed invention in the form of a two part system. The first solution was an aqueous solution containing the bioactive agent, dextran-TRITC, at a concentration of 15 mg/ml. The second solution contained poly(ethylene-co-vinylacetate) with a vinyl acetate concentration of 33% (w/w) and poly(n-butyl methacrylate), with approximate weight average molecular weight of 337 kilodaltons. The poly(n-butyl methacrylate) and poly(ethylene-co-vinylacetate) were purified by extraction with organic solvents to remove impurities, e.g., monomer residues. The polymers of the second solution were dissolved in tetrahydrofuran at a concentration of 10 mg/ml. […]
A suitable Bioactive Agent Release Assay, as describe herein, can be used to determine the extent and rate of bioactive agent release under physiological conditions. In general it is desirable that less than 50% of the total quantity of the bioactive agent be released in the first 24 hours. It is frequently desirable for quantities of bioactive agent to be released for a duration of at least 30 days.
Except as otherwise provided herein, each coated disc was placed in an amber vial with 4 mls of PBS. […] The concentration of bioactive agent in each PBS sample was determined using UV spectroscopy. […]

With “tetramethylrhodamine isothiocyanate-Dextran [dextran-TRITC]”, the “release rate of the bioactive agent, topcoat coated at 48% relative humidity versus 10% relative humidity” value is reported as “released at a faster rate”.
